Like-named read-outs stand apart in the source and are kept apart here.
Tests used:
[1] = target: recombinant gp120 used for isothermal titration calorimetry (strain not stated) (HIV-1 (strain not stated)) (UniProt P04578); assay: ITC; 102 µM SVN titrated into the cell with 1.6 µM gp120; 30 °C; 10 mM sodium phosphate pH 7.4, 3 mM sodium azide; fitted to one set of identical sites
[2] = target: recombinant gp120 used for isothermal titration calorimetry (strain not stated) (HIV-1 (strain not stated)) (UniProt P04578); assay: as above; remark: listed apart in the source

scytovirin (SVN), full-size, E. coli-produced, sequence (P86041 whole entry): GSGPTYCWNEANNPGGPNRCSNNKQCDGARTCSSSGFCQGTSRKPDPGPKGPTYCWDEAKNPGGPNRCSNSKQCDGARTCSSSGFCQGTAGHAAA

## scytovirin (SVN), full-size, E. coli-produced (from UniProt P86041 1-95) (natural protein)
[1]
  Kd: 1630 nM
  dH: -6.45 kcal/mol
  stoichiometry N (SVN per gp120): 5
[2]
  Kd: 1500 nM

Source: PMC9034974, “Physicochemical characterization of the recombinant lectin scytovirin and microbicidal activity of the SD1 domain produced in rice against HIV-1” (Plant Cell Reports, 2022)
